In one assay the target is PH domain of AKT (UniProt P31749). Kind of assay: SPR.
The target of the next assay is PH domain of PDK1 (UniProt O15530). Kind of assay: SPR. In general terms: Surface plasmon resonance follows binding to a sensor surface in real time, without labels.

Broadly, the Kd is a measure of binding affinity in units of concentration. Higher therefore signals weaker binding.

Chain of UniProt O15530 (O15530 459-550): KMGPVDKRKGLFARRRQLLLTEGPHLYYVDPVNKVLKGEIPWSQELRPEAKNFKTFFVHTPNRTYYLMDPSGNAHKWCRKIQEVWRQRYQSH

“PH domain of AKT (from UniProt P31749 5-108) (domain or fragment)”: the Kd with PH domain of AKT is 37.6 nM; with PH domain of PDK1, 49.8 nM.
